# Data: US20070184522A1, “Cell death modulation via antagonists of Fasl and Fas activation” (University of Pittsburgh of the Commonwealth System of …, priority 2004, published 2007)
# Entries after “also recorded” stand apart in the source; their conditions may differ.
# B1: alpha subunit of Met (AlphaMet), amino acid residues 1 to 306, His-tagged (receptor, mouse)
# chain: MKAPTVLAPGILVLLLSLVQRSHGECKEALVKSEMNVNMKYQLPNFTAETPIQNVVLHGHHIYLGATNYIYVLNDKDLQKVSEFKTGPVLEHPDCLPCRDCSSKANSSGGVWKDNINMALLVDTYYDDQLISCGSVNRGTCQRHVLPPDNSADIQSEVHCMFSPEEESGQCPDCVVSALGAKVLLSEKDRFINFFVGNTINSSYPPGYSLHSISVRRLKETQDGFKFLTDQSYIDVLPEFLDSYPIKYIHAFESNHFIYFLTVQKETLDAQTFHTRIIRFCSVDSGLHSYMEMPLECILTEKRRKRHHHHHH
# Legend:
# [1] = biological target: T1, Fas-Fc / Fas ligand binding (Mus musculus, UniProt P25446); experiment: Competition ELISA: coated Fas ligand, Fas-Fc added with increasing amounts of polypeptide; conditions: Fas ligand 1 μg/ml coated, Fas-Fc 1 μg/ml
# T1 construct: purchased R&D
# T1 sequence (P25446 22-169 limits assumed): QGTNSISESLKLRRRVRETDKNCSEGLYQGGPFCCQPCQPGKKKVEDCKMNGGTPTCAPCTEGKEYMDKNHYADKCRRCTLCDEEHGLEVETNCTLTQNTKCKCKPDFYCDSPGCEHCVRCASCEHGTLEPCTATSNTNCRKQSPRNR
# Method: This antibody also recognizes Fas-Fc which is also tagged at the C-terminus by His. In FIG. 2b, a fixed amount of purified recombinant Fas-ligand was added to Fas-Fc in the absence or presence of increasing amounts of AlphaMet as indicated. Samples were subjected to pull down using proteinA agarose followed by Western blot using a polyclonal rabbit anti-FasL antibody. […] Fas ligand (1 μg/ml) was coated in the wells of a microtiter plate (triplicate wells) then 1 μg/ml of Fas-Fc was added in the absence or presence of an increasing amount of the indicated polypeptide. A 13 mer YLGA polypeptide derived from FasL also was synthesized and used. The control peptide was a scrambled 13 mer. Anti human IgM-HRP conjugates were used to detect the bound Fas-Fc. […] One-way ANOVA was carried out for determination of statistical significance. […] Cells (3×10^5) were plated in 24-well plates having Poly-L-Lysine pre-treated cover glass. 2 μg/ml of Fas ligand was added and the cells were incubated for 30 min on ice. Cells were then washed by PBS twice, and were subjected to immunostaining using anti-Fas ligand antibody and fluorescent microscopy. In Frame A, Fas ligand was not added, in B, only Fas ligand was added, in C-F, Fas ligand was added with different polypeptides as follows: AlphaMet, 12 mer YLGA, control peptide, and YLGA mutated AlphaMet, respectively.
# ELISA. Synthesized polypeptides (Genemed Synthesis, Inc. South San Francisco, Calif.) were dissolved in water and diluted in the coating buffer (0.05M of Sodium Carbonate, 0.02% of Sodium Azide, pH 9.6) to a final concentration of 1 ug/ml. One hundred microliter aliquots were added to coat each well of a 96-well microtitre plate. The coated plates were then washed with PBS-Tween (0.5%) three times. The plates were blotted and dried by tapping upside down on tissue paper. They were blocked using 200 μl of 1% of BSA in PBS solution followed by a 2 hour incubation. Plates were washed another three times, Fas-Fc was added, and the plates were incubated for another 2 hours. The plates were washed three times and anti-human IgM Fc HRP conjugates were included at a final concentration of 1:20,000, and incubated for 1 hour. Plates were washed three times again and ready-to-use TMD was added and incubated for 30 minutes. The color reaction was stopped by 2M of Sulfuric Acid. Plates were applied to color read at a wave length of 450 nm.
# [2] = test system: Fas capping in Hepa 1-6 cells; experiment: Fas capping of fluorescent protein tagged Fas in Hepa 1-6 cells; format: cell-based; conditions: for FasL-induced Fas capping: Hepa 1-6, FasL 1 μg/ml, AlphaMet 5 μg/ml or YLGA 12 mer 1 μg/ml, 30 minutes; for Jo2-induced Fas capping/clustering: Hepa 1-6, Jo2 100 ng/ml
# Method: FIG. 3a presents data collected from Jurkat cells (1×10^6) treated with 2 μg/ml of Fas Ligand with or without AlphaMet for 30 minutes on ice. Cells were washed with PBS twice and then incubated with 2 mM of DTSSP in PBS for 30 minutes. The crosslinking process was stopped by 20 mM of Tris (pH 7.5) for another 30 minutes. Cells were spun down and washed with PBS twice and lyzed in RIPA buffer. Cell lysates were subjected to SDS-PAGE under non-reducing or reducing conditions (FIG. 3b) and Western blot analysis using the mouse monoclonal antibody against human Fas. FIG. 3c depicts the quantification of the data in FIG. 3a by densitometry. The data are the mean and SE from three different independent crosslinking and Western blot experiments. […] Frame A: Acceptor CFP-Fas image; Frame B: Acceptor pre-bleach CFP-Fas image; Frame C: Acceptor post-bleach image. Frame D: Donor YFP-Fas image; Frame E: Donor pre-bleach image; Frame F: […]. The CFP-Fas strength in the selected region obtained a gain of 19.3% efficiency in the presence of FasL for 15 minutes. No FRET was observed without FasL. […] FIG. 3e depicts the results of experiments in which CFP-tagged Fas or CFP control vector were transiently expressed in Hepa 1-6 Cells (3×10^5). Cells were treated with 1 μg/ml of Fas ligand or 100 ng/ml of Jo2 with or without 5 μg/ml of AlphaMet or 1 μg/ml of YLGA 12 mer for 30 minutes on ice. Cells were fixed and analyzed by fluorescence microscopy. Frame A: AlphaMet treatment only, no FasL; Frame B: Fas ligand treatment only; Frame C: Fas ligand and AlphaMet treatment; Frame D: Fas ligand and 12 mer YLGA; Frame E: Jo2 treatment only and Frame F: Jo2 and AlphaMet treatment.
# Fluorescence protein tagged Fas molecules and Hepa 1-6 cells were used for these experiments. These cells were transiently co-transfected with CFP and YFP chimeric Fas expression vectors using the lipofectamine 2000 method (Invitrogen). After 24 hours of transfection, about 50% of the cells were fluorescing. The cells were treated by Fas-ligand in the presence or absence of AlphaMet for 30 minutes. Treated cells were then fixed with cold methanol and subjected to FRET analysis. Cells were considered positive if FRET efficiency was over 10%. FRET phenomenon was observed only in cells that were treated with Fas-ligand. […] In these experiments the percent of Fas capping was also determined.
Molecule,inhibition of FasL binding to Fas-Fc (ELISA) [1],FasL-induced Fas capping [2],Jo2-induced Fas capping/clustering [2]
HHIYLGATNYIY [12 mer],significantly inhibited FasL binding,inhibited to the background level,reduced Jo2-induced Fas capping
YLGA [YLGA 4 mer],"lower, yet significant inhibition",,
B1,,inhibited to the background level,also inhibited; also recorded: reduced Jo2-induced Fas capping
